Measurements: the nanobody polyreactivity screen of Harvey et al. (2022)

Assay: yeast display, Sf9 membrane polyspecificity reagent, FACS + sequencing; frameworks hold sequencing errors
How it was run: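 After 36–48 hours of galactose induction, yeast (Saccharomyces cerevisiae BJ5465) displaying a synthetic nanobody library were stained at 4 °C for 1 hour with 10% biotinylated, detergent-solubilized Sf9 membrane reagent. Streptavidin microbeads enriched the stained cells before FACS sorting into low and high (top ~1%) gates on anti-HA and streptavidin fluorescence. Each clone's polyreactivity label reflects its gate of origin.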

Sequence | polyreactivity (PSR sort gate)
QVQLVESGGGLVQAGGSLRLSCAASGIIFSIYAMGWSRQAPGKERELVAAISGRGGRTYYADSVKGRFTMSRDNAKNTVYLQMNSLKPEDTAVYFCAAGAHAYAHYSWFYFRMHYWGQGTQVTVSS | low polyreactivity
QVQLVESGGGLVQAGGSLRLSCAASGIIFSKNAMGWYRQAPGKERELVATINRSGGSTYADSVKGRFTISRDNAKNTVYLQMNSLKPEDTAVYYCAKRASPFWRGYDSWGQGTQVTVSS | low polyreactivity
QVQLVESGGGLVQAGGSLRLSCAASGIIFSPYAMGWYRQAPGKERELVAAITNNGGGTYYADSVKGRFTISRDNAKNTVYLQMNSLKPEDTAVYYCAAEGFLEYPYYIWYDYWGQGTQVTVSS | high polyreactivity
QVQLVESGGGLVQAGGSLRLSCAASGIIFSSNAMGWYRQAPGKERELVAAISRSGGSTYYADSVKARFTISRDNAKKTVYLQMNSLKPEDTAVYDCAAVYRRGHEYDYWRQGTQVTVSS | high polyreactivity
QVQLVESGGGLVQAGGSLRLSCAASGIIFSTYAMGWYRHAPWKERELVAAITRGDSTNYADSVKGRFTISRDNAKNTVYLQMNSLKPEDTAVYYCAVDKRYGRVVGRDYDYWGQGTQVTVSS | high polyreactivity
QVQLVESGGGLVQAGGSLRLSCAASGIIFSVYAMGWYRQAPGTERELVAAISGSGGSTYYADSVKGRFTISRDNAKNTVYLQMNSLKPEDTAVYYCAARKKWSIRSDYWGQGTQVTVSS | high polyreactivity
QVQLVESGGGLVQAGGSLRLSCAASGIIFSYNVMGWYRQAPGTERELVAGISRSGGSTYYADSVKGRFTISRDNAKNTVYLQMNSLKPEDTAVYYCNRVSYGPYYSYWSDFGYWGQGTQVTVSS | high polyreactivity
QVQLVESGGGLVQAGGSLRLSCAASGIIFSYYAMGWYIQAPGKERELVAAISSSGVSTNYADSVKGRFTISRDNAKNTVYLQMNSLKPEDTAVYYCNARGYYWYRPYVNSNGGYWGQGTQVTVSS | high polyreactivity
QVQLVESGGGLVQAGGSLRLSCAASGIIFSYYPMGRYRQAPGIERELVAAISRSGGNTYYADSVKGRFTISRDNAKNTVYVQMNSLKPEDTAVYYCAVGWYDDYYYGYDYWGQGTQVTVSS | high polyreactivity
QVQLVESGGGLVQAGGSLRLSCAASGIIFTANVMGWYRHAPGKERELDAVISLSGGITFYADSVKGRFTISRDNAKNTVYLQMNSLKPEDTAVYYCAAEPWYSWKTEEDYWGQGTQVTVTS | low polyreactivity
QVQLVESGGGLVQAGGSLRLSCAASGIIFTDYAMGWDRQAPGKERELVAAISSGGGSTYYADSVKGRFTISRDNAKNTVYIQLNSQKPEDTAVYYCAAEGYLISGACDYLYDYYWGQGTQVTVSS | high polyreactivity
QVQLVESGGGLVQAGGSLRLSCAASGIIFTGYAMGWYRQAPGKERELVAAISDTGGSTYYADSVKGRFTISRDNAKNTVYLQMNSLKPEDTAVYYCAADWWSRYYYWGQGTQVTVSS | high polyreactivity
QVQLVESGGGLVQAGGSLRLSCAASGIIFTLYAMGWYRQAPGKERELVATISTGGGTYYADSVKGRFTISRDNAKNTVYLQMNSLKPEDTAVYYCNAVKLLGTRGYGYWGQGTQVTVSS | high polyreactivity
QVQLVESGGGLVQAGGSLRLSCAASGIIFTSNTMGWYRQAPGKEREFVASINWNGSSTYADSVKGRFTISRDNAKNTVYLQMNSMKPEDTAVYYCNADYNRNSVQFSLYDYWGQGTQVTVSS | low polyreactivity
QVQLVESGGGLVQAGGSLRLSCAASGIIFTTYVMGWYRHAPGTESELVAAISRGGRTYYADSVKGRFTLSRDNAKHTVYLQMNSLKPEDTAVYYCARVAYKGYGEDDYWGQGTQVTVSS | high polyreactivity
QVQLVESGGGLVQAGGSLRLSCAASGIIFTYAMGWYRQAPGKERELVAAIDWRGGRTYYADSVKGRFTISRDNAKNTVYLQMNSLKPEDTAVYYCAARLPGGTYYWGQGTQVTVSS | high polyreactivity
QVQLVESGGGLVQAGGSLRLSCAASGIIFVKNAMGWYRQAPGKVRELVAAISRSGARTYYADSVKGRFTISRDNAKNTVYLLMNSLKPEDSAVYYCNKVVRYGHTRKIDTESDYWGQGTQVTVSS | high polyreactivity
QVQLVESGGGLVQAGGSLRLSCAASGIIFVKYAMGWYRQAPGKERELVAAITSGGSTYYADSVKGRFTISRDNAKNTVYLQMNSLKPDDTAVYYCNADSWFLYYFTINGYWGQGTQVTVSS | high polyreactivity
QVQLVESGGGLVQAGGSLRLSCAASGIIFVPYAMGWYRQAPGKERELVAANNSGGNTYYADSVKGRFTISRDNAKNTVYLLIYSLKPEDTAVYYCGAYSKYPVFDYNYWGQGTQVTVSS | high polyreactivity
QVQLVESGGGLVQAGGSLRLSCAASGIIFVRNAMGWYRKAPGKERELVAAISRSGGSTYYADSVKWRFTISRDNAKNTVYLQMNSLKPEDTAVYYCAAVLRLSSGYDYWGQGTQVTVSS | high polyreactivity
QVQLVESGGGLVQAGGSLRLSCAASGIIFVRYAMGWYIQAPGKERELVAAINSRGNTYYADSVKGRFTISRDNAKNSVYLQMNSLKPEDTAVYYCAKYNSWGQGTQVTVSS | high polyreactivity

Sequence | polyreactivity (PSR sort gate)
QVQLVESGGGLVQAGGSLRLSCAASGIIFVSYDMGWYRQAPGKERELVAAINRGGRTYYADSVKGRFTISRDNAKNTVYLQMNSLKAEDTAVYYCAAQFHFRPFSLTYDYWGQGTQLTVSS | high polyreactivity
QVQLVESGGGLVQAGGSLRLSCAASGIIFVWYTMGWYRQAPGKERELVAAIDSIGDGTYYADSVKGRFTISRDNAKNTVYLQMNSLKPEDTAVYYCAVDDYYEMDYWGQGTQVTVSS | low polyreactivity
QVQLVESGGGLVQAGGSLRLSCAASGIIFVYYTMGWYRQAPGKERELVAAITSGGSTYYADSVKGRFTISRDNAKNTVYLQMNSLKPEDTAVYYCAAVGRPPYAGDRGYWGQGTQVTVSS | high polyreactivity
QVQLVESGGGLVQAGGSLRLSCAASGIIFWWYAMGWYRQAPGKERELVAAISGTGGSTYYADSVKGRFTISRDNAKNTVYLQMNSLKPEDTAVYYCAKRASPFWRGYDSWGQGTQVTVSS | low polyreactivity
QVQLVESGGGLVQAGGSLRLSCAASGIIFYANVMGLYRQAPGKERELVAGISRNGGRTYYADSVKGRFTISRDNAKNTVYLQMNSLKPADTAVYYCAALGSYTSIFDYWGQGTQVTVSS | high polyreactivity
QVQLVESGGGLVQAGGSLRLSCAASGIIFYDYAMGWYRQAPGKERELVAAITSGGSTNYADSVKGRFTISRDNAKNTVYLQMNSLKPEDTAVYYCAATYWSWIPLRFYRGQGTQVTVSS | low polyreactivity
QVQLVESGGGLVQAGGSLRLSCAASGIIFYDYAMGWYRQAPGKERELVAAITSNGDNTYYADSVKGRFTISRDNAKNTVYLPMNSLKPEDTAVYYCAVDGSFAADFDNYLEEYGYWGQGTQVTVSS | low polyreactivity
QVQLVESGGGLVQAGGSLRLSCAASGIIFYENAMGWYRQAPGKERELVAAIDGDDGGTDYADSVKGRFTISRDNAKNTVYLQMNSLKPEDTAVYYCAADFGAETGYYYWGQGTQVTVSS | low polyreactivity
QVQLVESGGGLVQAGGSLRLSCAASGIIFYEYVMGWYRPAPGKERELVAAINRSGGSTYYADSVKGRFTISRDNAKNTVYLQMNSLKPEDTAVYYCAASSTYDGRKYYYWGQGTQVNVSS | high polyreactivity
QVQLVESGGGLVQAGGSLRLSCAASGIIFYEYVMGWYRQAPGKEREVVATISSIGGATYYADSVKGRFTISRDNAKNTVYLQMNSLKPEDTAVDYCAADPEPVVARGGNWYGDDDWGQGTQVTVSS | high polyreactivity
QVQLVESGGGLVQAGGSLRLSCAASGIIFYFYAMGWYRQAPGKERELVATITWSGTSTNYADSVKGRFTISRDNAKNTVYLQMNSLKPEDTAVYYCAARWPTGRNGYWGQGTQVTVSS | high polyreactivity
QVQLVESGGGLVQAGGSLRLSCAASGIIFYGYAMGWYRQAPGKERDLVAAISSGGGTNYADSVKGRFTISRDNAKNTVYLQMNSLIPEDTAVYYCASRQYRRVKQGNYWGQGTQVTVSS | high polyreactivity
QVQLVESGGGLVQAGGSLRLSCAASGIIFYGYAMGWYRQAPGKERELVAAITYSGGSTYYADSVKGRFTISRDNAKNTVYLQMNSLKPEDTAVYYCAAYDAYSPYQALYDYWGQGTQVTVSS | low polyreactivity
QVQLVESGGGLVQAGGSLRLSCAASGIIFYKYAMGWYRQAPGKERELVAVISSGGSTYYADSVKGRFTISRDNAKNTVYLQMNSLKPEYNAVYYCNADCYRRGYDYWGKGTQVTVSS | high polyreactivity
QVQLVESGGGLVQAGGSLRLSCAASGIIFYLYAMGWYRQAPGKERELVAAISGSGGNTYYADSVKGRFTISRDNAKNTVYLQMNSLKPEDTAVYYCAVAVFVWYAVIPYAEYDYWGQGTQVTVSS | high polyreactivity
QVQLVESGGGLVQAGGSLRLSCAASGIIFYPYAMGWYSLAPGKERELVAAISQSGGTTSYADSVKGRFTISRDNAKNTVYLQMNSLKPEDTAVYYCARRVSTRKRYYYWGQGTQVTVSS | high polyreactivity
QVQLVESGGGLVQAGGSLRLSCAASGIIFYRNARGWYRQAPGKERELVAAISSRGGNTYYADSVKGRFTISRDNAKNTVYLQMNSLQPEDTAVYYCARDSYSLSRTYDSWGQGTQVTLSS | high polyreactivity
QVQLVESGGGLVQAGGSLRLSCAASGIIFYRYAMGWYRQAPGKEWELVAAITRRGGSTYYADSVKGRFTISRDNAKNTVYLQMNSLKPEDTGVYYCNARVRYTSADPSYYSWGQGTQVTVSS | high polyreactivity
QVQLVESGGGLVQAGGSLRLSCAASGIIFYRYTMGWYRQAPGKERELVAAITSGGDTNYADSVKGRFTISRDNAKNTVYLQMNSLKPEDTAVYYCNADCWWYLYLYDFWGQGTQVTVSS | high polyreactivity
QVQLVESGGGLVQAGGSLRLSCAASGIIFYSYAMGWYRQAPGKERELVAAISRSSGRTYYADSVKGRFTISRDNAKNTVYLQMNSLKPEDTAVYYCATDYYYYPWEYDYWGQGTQVTVSS | high polyreactivity
